Data as given in publication PMC6769022, “Identification of an adhesive interface for the non-clustered δ1 protocadherin-1 involved in respiratory diseases” (Communications Biology, 2019).
Residue numbers refer to the chain shown, from its start. Names may count otherwise.

B1: PCDH1 EC1-7Fc (Fc fusion, human, UniProt Q08174 58-852, looked up)
chain: TRVVYKVPEEQPPNTLIGSLAADYGFPDVGHLYKLEVGAPYLRVDGKTGDIFTTETSIDREGLRECQNQLPGDPCILEFEVSITDLVQNGSPRLLEGQIEVQDINDNTPNFASPVITLAIPENTNIGSLFPIPLASDRDAGPNGVASYELQAGPEAQELFGLQVAEDQEEKQPQLIVMGNLDRERWDSYDLTIKVQDGGSPPRASSALLRVTVLDTNDNAPKFERPSYEAELSENSPIGHSVIQVKANDSDQGANAEIEYTFHQAPEVVRRLLRLDRNTGLITVQGPVDREDLSTLRFSVLAKDRGTNPKSARAQVVVTVKDMNDNAPTIEIRGIGLVTHQDGMANISEDVAEETAVALVQVSDRDEGENAAVTCVVAGDVPFQLRQASETGSDSKKKYFLQTTTPLDYEKVKDYTIEIVAVDSGNPPLSSTNSLKVQVVDVNDNAPVFTQSVTEVAFPENNKPGEVIAEITASDADSGSNAELVYSLEPEPAAKGLFTISPETGEIQVKTSLDREQRESYELKVVAADRGSPSLQGTATVLVNVLDCNDNDPKFMLSGYNFSVMENMPALSPVGMVTVIDGDKGENAQVQLSVEQDNGDFVIQNGTGTILSSLSFDREQQSTYTFQLKAVDGGVPPRSAYVGVTINVLDENDNAPYITAPSNTSHKLLTPQTRLGETVSQVAAEDFDSGVNAELIYSIAGGNPYGLFQIGSHSGAITLEKEIERRHHGLHRLVVKVSDRGKPPRYGTALVHLYVNETLANRTLLETLLGHSLDTPLDIDIAGDPEYERSKQRGN
notes: Protocadherin-1 (PCDH1), human, repeats EC1 to EC7 (full-length extracellular domain); native signal peptide in the construct; Vector CMV:N1-Fc; Fc detected with anti-human IgG; also called human Protocadherin-1 full-length extracellular domain, Fc-tagged; wild-type PCDH1 EC1-7Fc; source: HEK293T, transfected, secreted into serum-free medium, captured on protein G Dynabeads
B2: PCDH1 EC1-7Fc C375S C548S (Fc fusion, human, UniProt Q08174 58-852, looked up)
chain: B1 chain with C375S, C548S
notes: Protocadherin-1 (PCDH1), human, repeats EC1 to EC7; native signal peptide in the construct; Vector CMV:N1-Fc; source: HEK293T, transfected, secreted into serum-free medium, captured on protein G Dynabeads
B3: PCDH1 EC1-7Fc V115R (Fc fusion, human, UniProt Q08174 58-852, looked up)
chain: B1 chain with V115R
notes: as for B2
B4: Hs PCDH1 EC1-4bc (domain or fragment, human)
chain: TRVVYKVPEEQPPNTLIGSLAADYGFPDVGHLYKLEVGAPYLRVDGKTGDIFTTETSIDREGLRECQNQLPGDPCILEFEVSITDLVQNGSPRLLEGQIEVQDINDNTPNFASPVITLAIPENTNIGSLFPIPLASDRDAGPNGVASYELQAGPEAQELFGLQVAEDQEEKQPQLIVMGNLDRERWDSYDLTIKVQDGGSPPRASSALLRVTVLDTNDNAPKFERPSYEAELSENSPIGHSVIQVKANDSDQGANAEIEYTFHQAPEVVRRLLRLDRNTGLITVQGPVDREDLSTLRFSVLAKDRGTNPKSARAQVVVTVKDMNDNAPTIEIRGIGLVTHQDGMANISEDVAEETAVALVQVSDRDEGENAAVTCVVAGDVPFQLRQASETGSDSKKKYFLQTTTPLDYEKVKDYTIEIVAVDSGNPPLSSTNSLKVQVVDVNDNA
notes: Protocadherin-1 (PCDH1), human, repeats EC1 to EC4, without signal peptide; also called PCDH1 EC1-4 (bacterially produced, wild type)
B5: PCDH1 EC1-4Fc (Fc fusion, human)
chain: B4 chain
notes: Protocadherin-1 (PCDH1), human, repeats EC1 to EC4; native signal peptide in the construct; Vector CMV:N1-Fc; PDB 6MGA holds the His-tagged mammalian EC1-4 fragment; source: HEK293T, transfected, secreted into serum-free medium, captured on protein G Dynabeads
B6: PCDH1 EC1-4 C375S (domain or fragment, human)
chain: B4 chain with C375S
notes: Protocadherin-1 (PCDH1), human, repeats EC1 to EC4, without signal peptide; Parent (wild-type bacterial EC1-4) is in PDB 6BX7; also called bacterially produced PCDH1 EC1-4 C375S
B7: Hs PCDH1 EC1-4mc (domain or fragment, human)
chain: B4 chain
modifications: sugars observed at N248 (N-linked) and S430 (O-linked) in the structure
notes: Protocadherin-1 (PCDH1), human, repeats EC1 to EC4; Vector CMV:N1-His; also called PCDH1 EC1-4His
B8: PCDH1 EC1-5 C375S C548S (domain or fragment)
chain: MTRVVYKVPEEQPPNTLIGSLAADYGFPDVGHLYKLEVGAPYLRVDGKTGDIFTTETSIDREGLRECQNQLPGDPCILEFEVSITDLVQNGSPRLLEGQIEVQDINDNTPNFASPVITLAIPENTNIGSLFPIPLASDRDAGPNGVASYELQAGPEAQELFGLQVAEDQEEKQPQLIVMGNLDRERWDSYDLTIKVQDGGSPPRASSALLRVTVLDTNDNAPKFERPSYEAELSENSPIGHSVIQVKANDSDQGANAEIEYTFHQAPEVVRRLLRLDRNTGLITVQGPVDREDLSTLRFSVLAKDRGTNPKSARAQVVVTVKDMNDNAPTIEIRGIGLVTHQDGMANISEDVAEETAVALVQVSDRDEGENAAVTSVVAGDVPFQLRQASETGSDSKKKYFLQTTTPLDYEKVKDYTIEIVAVDSGNPPLSSTNSLKVQVVDVNDNAPVFTQSVTEVAFPENNKPGEVIAEITASDADSGSNAELVYSLEPEPAAKGLFTISPETGEIQVKTSLDREQRESYELKVVAADRGSPSLQGTATVLVNVLDSNDNDLEHHHHHH
B9: PCDH1 EC1-5 C375S C548S V115R (domain or fragment)
chain: B8 chain with V116R

Experiments:
[1] = biological target: the molecule itself; test: bead aggregation assay; Fc fusions from concentrated HEK293T medium bound to protein G Dynabeads, washed; binding buffer 50 mM TrisHCl pH 7.5, 100 mM NaCl, 10 mM KCl, 0.2% BSA with 2 mM CaCl2; 60 min without motion, then 1 and 2 min rocking; aggregates imaged
[2] = biological target: the molecule itself; test: crystal structure; vapor diffusion at 4 °C; one molecule in the asymmetric unit, antiparallel dimers formed by crystal symmetry
[3] = biological target: the molecule itself; test: AUC; sedimentation velocity, 50,000 r.p.m., 20 °C, 20 mM Tris-HCl pH 8.0, 150 mM KCl, 50 mM NaCl, 2 mM CaCl2; dimer to monomers

Protein	binding result [1]	stoichiometry N [3]	other results
B1	binds	–	–
B2	binds	–	–
B3	binds	–	–
B4	–	–	binding result [2]: binds
B5	binds	–	–
B6	–	2	Kd [3]: < 5 µM
B7	–	–	binding result [2]: binds
B8	–	2	Kd [3]: < 5 µM
B9	–	2	–
